This note sets out measurements from publication PMC7568541.

Series [1] concerns SIRT6(270-355) CTD. The experiment in a line: EMSA. As to conditions: EMSA: 10 mM Tris, 50 mM NaCl (100 mM for DNA), 0.5 mM TCEP, 6% glycerol, pH 7.4, on ice, 50 nM NCP, FRET: 50 mM Tris, pH 7.5, 1 nM …. In general terms: Mobility shift assays separate free from complexed probe on a gel.
Series [2] deals with recombinant 601-positioned nucleosome core particle (X. laevis histones, 147-bp 601 DNA) (x. laevis). As to the kind of experiment: native gel or EMSA.
Series [3] has the same target. The experiment in a line: native gel or EMSA; competition: SIRT6:NCP complexes pre-formed with 100 nM SIRT6, then competed with LANA peptide (300 nM to 100 µM); IC50 from percent inhibition.
The subject of series [4] is SIRT6 25N mutant. The experiment in a line: EMSA. Particulars: apparent, n=1, EMSA: 10 mM Tris, 50 mM NaCl (100 mM for DNA), 0.5 mM TCEP, 6% glycerol, pH 7.4, on ice, 50 nM NCP, FRET: 50 mM Tris, pH 7.5, 1 nM ….
The subject of series [5] is SIRT6 27R mutant. As to the kind of experiment: EMSA. As to conditions: apparent, n=1, EMSA: 10 mM Tris, 50 mM NaCl (100 mM for DNA), 0.5 mM TCEP, 6% glycerol, pH 7.4, on ice, 50 nM NCP, FRET: 50 mM Tris, pH 7.5, 1 nM ….
Series [6] deals with SIRT6(1-292). The experiment in a line: EMSA. As to conditions: EMSA: 10 mM Tris, 50 mM NaCl (100 mM for DNA), 0.5 mM TCEP, 6% glycerol, pH 7.4, on ice, 50 nM NCP, FRET: 50 mM Tris, pH 7.5, 1 nM ….
In series [7] the test system is SIRT6(1-301). The experiment in a line: EMSA. As to conditions: 139 nM in text, EMSA: 10 mM Tris, 50 mM NaCl (100 mM for DNA), 0.5 mM TCEP, 6% glycerol, pH 7.4, on ice, 50 nM NCP, FRET: 50 mM Tris, pH 7.5, 1 nM ….
Series [8] concerns SIRT6(AAA). As to the kind of experiment: EMSA. As to conditions: EMSA: 10 mM Tris, 50 mM NaCl (100 mM for DNA), 0.5 mM TCEP, 6% glycerol, pH 7.4, on ice, 50 nM NCP, FRET: 50 mM Tris, pH 7.5, 1 nM ….
For series [9], the system named is SIRT6. As to the kind of experiment: EMSA. Particulars: apparent, both complexes as bound, 50 nM NCP, EMSA: 10 mM Tris, 50 mM NaCl (100 mM for DNA), 0.5 mM TCEP, 6% glycerol, pH 7.4, on ice, FRET: 50 mM Tris, pH 7.5, 1 nM ….
In series [10] the test system is LANA peptide (Kaposi's sarcoma-associated herpesvirus). As to the kind of experiment: competition EMSA. Particulars: EMSA: 10 mM Tris, 50 mM NaCl (100 mM for DNA), 0.5 mM TCEP, 6% glycerol, pH 7.4, on ice, 50 nM NCP, FRET: 50 mM Tris, pH 7.5, 1 nM ….
For series [11] the test system is unchanged. The experiment in a line: competition EMSA. As to conditions: EMSA: 10 mM Tris, 50 mM NaCl (100 mM for DNA), 0.5 mM TCEP, 6% glycerol, pH 7.4, on ice, 50 nM NCP, FRET: 50 mM Tris, pH 7.5, 1 nM …. This is another data set of the same source.
The subject of series [12] is SIRT6(TQ3). As to the kind of experiment: FRET. Particulars: EMSA: 10 mM Tris, 50 mM NaCl (100 mM for DNA), 0.5 mM TCEP, 6% glycerol, pH 7.4, on ice, 50 nM NCP, FRET: 50 mM Tris, pH 7.5, 1 nM ….
Series [13] concerns the target nucleosome core particle with four alanine mutations at the H2A acidic patch (x. laevis). The experiment in a line: native gel or EMSA; 50 nM recombinant nucleosomes with varying SIRT6 protein; 10 mM Tris, 50 mM NaCl, 0.5 mM TCEP, 6% glycerol, pH 7.4, on ice >15 min; SYBR Safe; apparent KD, shifted complexes together as bound fraction, ligand-depleted (quadratic) fit.

Series [14] concerns the target recombinant 601-positioned nucleosome core particle (X. laevis histones, 147-bp 601 DNA) (x. laevis). Described as above.
Series [15] shares this target. The experiment in a line: FRET or BRET; 1 nM Cy3-labeled nucleosomes titrated with SIRT6^(TQ3) in solution; 50 mM Tris, 50 mM NaCl, 0.5 mM TCEP, pH 7.5; KD(High) fitted from 0-5 nM (ligand-depleted), KD(Low) from 5-500 nM (specific binding). Background: In BRET a luciferase serves as donor, and the signal depends on an acceptor being close.
Series [16] has the same target. The experiment in a line: native gel or EMSA; TAMRA-labeled SIRT6 with NCP; TAMRA and SYBR Safe fluorescence scanned in the same gel, TAMRA signal normalized to DNA content; gel blotted for histone H3.
Series [17] has as its target NCP with the high affinity site saturated with full-length SIRT6 (1:1 SIRT6:NCP complex) (x. laevis | not stated) (UniProt Q8N6T7). As to the kind of experiment: native gel or EMSA; high affinity site on NCPs saturated with 10 nM full-length SIRT6, then increasing SIRT6^(1–292); fraction bound from the loss of free nucleosomes.

Sequence of Latency Associated Nuclear Antigen (LANA) peptide from Kaposi’s sarcoma-associated herpesvirus (Q9QR71 1-23): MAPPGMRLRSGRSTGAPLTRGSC

In turn, 601 DNA (147 bp) had a Kd in series [1] (100 mM NaCl, 50 nM DNA) of 450 nM.

In the case of “Latency Associated Nuclear Antigen (LANA) peptide from Kaposi’s sarcoma-associated herpesvirus”, the half-maximal inhibitory concentration (IC50) (in general, the concentration at which inhibition is half-maximal) amounted to 6100 nM in series [2] and 9500 nM in series [3].

Take NCP (601, 147 bp): the Kd was 14 nM in series [4]; 14 nM in series [5]; 250 nM in series [6] (254 nM in text); 40 nM in series [6]; 140 nM in [7]; 400 nM in series [1]. The results for the Kd in series [8] and in [9] were 97 nM and 13 nM, respectively. The IC50 in [10] was 9500 nM; in series [11], 6100 nM.

As for NCP(Cy3), the Kd in series [12] (high-affinity site) was determined as 0.46 nM; in series [12] (low-affinity site), 30 nM.

For the substance “SIRT6 (full-length, His-tagged) (from UniProt Q8N6T7 1-355) (enzyme)”, the figures for the Kd in series [13] and in [14] were 140 nM and 13 nM, respectively.

Take “SIRT6 C-terminal domain (residues 270–355) (from UniProt Q8N6T7 270-355) (domain or fragment)”: the Kd in series [14] is 400 nM.

For the substance “SIRT6 labeled with Tide Quencher 3 (TQ3) at cysteine 18 (from UniProt Q8N6T7 2-355) (enzyme)”, in series [15], the KD(High), high affinity site worked out at 0.46 nM and the KD(Low), low affinity site was 30 nM.

For the substance “SIRT6 labeled with tetramethylrhodamine (TAMRA) at cysteine 320 (from UniProt Q8N6T7 2-355) (enzyme)”, the stoichiometry N (commonly a count of units in the complex or per binding partner) in [16] came to 2.

In [17], “SIRT6 residues 1–292 (C-terminal truncation) (from UniProt Q8N6T7 1-292) (domain or fragment)” gave a KD(Low), low affinity site of 40 nM. In addition, in [14], the Kd is 250 nM and the stoichiometry N was 2.

For “SIRT6 residues 1–301 (C-terminal truncation) (from UniProt Q8N6T7 1-301) (domain or fragment)”, in [14], the Kd stood at 140 nM and the stoichiometry N turned out to be 2.

On to “SIRT6 with alanine substitutions at S45, N206 and N208 (from UniProt Q8N6T7 2-355) (enzyme)”, for which the Kd in series [14] was found to be 97 nM.
